The values that follow come from patent US20120311746A1.

For the assay, the target named is receptors in brush border membrane vesicles produced from Spodoptera frugiperda (fall armyworm, FAW). Kind of assay: competitive displacement of 0.5 nM ^125I Cry1Be (competitor) from FAW BBMV.

For “Cry1Fa protein from Bacillus thuringiensis (from UniProt Q03746 28-605) (ligand)”, the concentration at which displacement of ^125I Cry1Be is effective was over 100 nM.
